Measured values reported in patent US20120094923A1 (published 2012).
Positions count from the first letter of the chain named. Names may count otherwise.

Experiments:
BPTI-K15R/R17G [1] = biological target: T1, BPTI-K15R/R17G (bovine, UniProt P00974 36-93); assay: co-crystal structure, PDB 3P92
BPTI-K15R/R17D [2] = biological target: T2, BPTI-K15R/R17D (bovine, UniProt P00974 36-93); assay: co-crystal structure, PDB 3P95
Method: The heterodimeric complexes were further purified by HiLoad Superdex 75 gel filtration chromatography (GE Healthcare), exchanged into 10 mM Na acetate, pH 6.5, and concentrated to ˜3 mg/mL. […] Drops (4 μL) were prepared by mixing equal volumes of protein and reservoir solutions.

BPTI-K15R/R17G [3] = biological target: T1, BPTI-K15R/R17G; assay: slow tight-binding inhibition kinetics
Method: Reactions were run at 25° C., and were followed spectroscopically for 16 hours so that reliable steady-state rates could be obtained.

BPTI-R17M = BPTI-R17M (bovine, UniProt P00974 36-93); assay: 1/Ki from competitive inhibition
BPTI-K15R/R17G [4] = biological target: T1, BPTI-K15R/R17G; assay: 1/Ki from competitive inhibition
[5] = biological target: bovine pancreatic trypsin inhibitor, wild type (bovine, UniProt P00974 36-93); assay: 1/Ki from competitive inhibition
BPTI-K15R/R17M = BPTI-K15R/R17M (bovine, UniProt P00974 36-93); assay: 1/Ki from competitive inhibition
BPTI-K15R = BPTI-K15R (bovine, UniProt P00974 36-93); assay: 1/Ki from competitive inhibition
BPTI-K15R/R17D [6] = biological target: T2, BPTI-K15R/R17D; assay: 1/Ki from competitive inhibition

B1: catalytically inactive mesotrypsin-S195A (enzyme)
chain: IVGGYTCEENSLPYQVSLNSGSHFCGGSLISEQWVVSAAHCYKTRIQVRLGEHNIKVLEGNEQFINAAKIIRHPKYNRDTLDNDIMLIKLSSPAVINARVSTISLPTAPPAAGTECLISGWGNTLSFGADYPDELKCLDAPVLTQAECKASYPGKITNSMFCVGFLEGGKDSCQRDAGGPVVCNGQLQGVVSWGHGCAWKNRPGVYTKVYNYVDWIKDTIAANS
notes: Used for the co-crystal structures; also called S195A mutant
BPTI-K15R/R17G [1]
  binding result: binds
BPTI-K15R/R17D [2]
  binding result: binds

B2: recombinant human anionic trypsin (enzyme, UniProt P07478 24-247, looked up)
chain: IVGGYICEENSVPYQVSLNSGYHFCGGSLISEQWVVSAGHCYKSRIQVRLGEHNIEVLEGNEQFINAAKIIRHPKYNSRTLDNDILLIKLSSPAVINSRVSAISLPTAPPAAGTESLISGWGNTLSSGADYPDELQCLDAPVLSQAECEASYPGKITNNMFCVGFLEGGKDSCQGDSGGPVVSNGELQGIVSWGYGCAQKNRPGVYTKVYNYVDWIKDTIAANS
notes: mature
BPTI-K15R/R17G [3]
  binding result: binds

B3: recombinant human mesotrypsin (enzyme)
chain: B1 chain with A177S
notes: also called PRSS3
BPTI-R17M
  Ka: 1.32e+06 M⁻¹
BPTI-K15R/R17G [4]
  Ka: 9.3e+07 M⁻¹
[5]
  Ka: 74100 M⁻¹
BPTI-K15R/R17M
  Ka: 4.76e+06 M⁻¹
BPTI-K15R
  Ka: 417000 M⁻¹
BPTI-K15R/R17D [6]
  Ka: 667000 M⁻¹
